# B1: mRNA-splicing (parent)
# chain: AGUUGCUGCUGGGAGCUCCAGCACAGUGAAAUGGACAGAAGGGCAGAGCAA
# Variants of: B1
# Assay: exon inclusion enrichment index; higher = more inclusion; WT1 exon 5 minigene, HEK293
row,Variant,exon inclusion enrichment index
1,AGUUCUUCUCGGGAGCUCCAGCACAGUGAAAUCCACAGAAGGGCAGAGCAA [G5C C6U G8C C9U U10C G33C G34C],1.12
2,AGUUCUUCUCGGGAGCUCCAGCACAGUGAAAUCUACAGAAGGGCAGAGCAA [G5C C6U G8C C9U U10C G33C G34U],1.29
3,AGUUCUUCUCGGGAGCUCCAGCACAGUGAAAUCAACAGAAGGGCAGAGCAA [G5C C6U G8C C9U U10C G33C G34A],1.24
4,AGUUCUUCUCGGGAGCUCCAGCACAAGGAAAUGGACAGAAGGGCAGAGCAA [G5C C6U G8C C9U U10C G26A U27G],2.81
5,AGUUCUUCUCGGGAGCUCCAGCACAACGAAAUGGACAGAAGGGCAGAGCAA [G5C C6U G8C C9U U10C G26A U27C],3.55
6,AGUUCUUCUCGGGAGCUCCAGCACAAAGAAAUGGACAGAAGGGCAGAGCAA [G5C C6U G8C C9U U10C G26A U27A],1.96
7,AGUUCUUCUCGGGAGCUCCAGCACAGUGAAAUGGACAGAAUAGCAGAGCAA [G5C C6U G8C C9U U10C G41U G42A],0.727
8,AGUUCUUCUCGGGAGCUCCAGCACAGUGAAAUGGACAGAAUCGCAGAGCAA [G5C C6U G8C C9U U10C G41U G42C],2.93
9,AGUUCUUCUCGGGAGCUCCAGCACAGUGAAAUGGACAGAAUUGCAGAGCAA [G5C C6U G8C C9U U10C G41U G42U],1.74
10,AGUUCUUCUCGGGAGCUCCAGCACAAUGAAAUGGACAGAAGGGCAGAGCAA [G5C C6U G8C C9U U10C G26A],2.49
11,AGUUCUUCUCGGGAGCUCCAGCACACUGAAAUGGACAGAAGGGCAGAGCAA [G5C C6U G8C C9U U10C G26C],2.29
12,AGUUCUUCUCGGGAGCUCCAGCACAUUGAAAUGGACAGAAGGGCAGAGCAA [G5C C6U G8C C9U U10C G26U],2.06
13,AGUUCUUCUCGGGAGCUCCAGCACACAGAAAUGGACAGAAGGGCAGAGCAA [G5C C6U G8C C9U U10C G26C U27A],2.14
14,AGUUCUUCUCGGGAGCUCCAGCACACCGAAAUGGACAGAAGGGCAGAGCAA [G5C C6U G8C C9U U10C G26C U27C],3.12
15,AGUUCUUCUCGGGAGCUCCAGCACACGGAAAUGGACAGAAGGGCAGAGCAA [G5C C6U G8C C9U U10C G26C U27G],3.22
16,AGUUCUUCUCGGGAGCUCCAGCACAGUGAAAUGGACAUUAGGGCAGAGCAA [G5C C6U G8C C9U U10C G38U A39U],0.0819
17,AGUUCUUCUCGGGAGCUCCAGCACAGUGAAAUGGACAUCAGGGCAGAGCAA [G5C C6U G8C C9U U10C G38U A39C],1.39
18,AGUUCUUCUCGGGAGCUCCAGCACAGUGAAAUGGACAUGAGGGCAGAGCAA [G5C C6U G8C C9U U10C G38U A39G],0.734
19,AGUUCUUCUCGGGAGCUCCAGCACAGUAUAAUGGACAGAAGGGCAGAGCAA [G5C C6U G8C C9U U10C G28A A29U],0.475
20,AGUUCUUCUCGGGAGCUCCAGCACAGUAGAAUGGACAGAAGGGCAGAGCAA [G5C C6U G8C C9U U10C G28A A29G],0.736
21,AGUUCUUCUCGGGAGCUCCAGCACAGUACAAUGGACAGAAGGGCAGAGCAA [G5C C6U G8C C9U U10C G28A A29C],1.12
22,AGUUCUUCUCGGGAGCUCCAGCACAGUGAAAUGUGCAGAAGGGCAGAGCAA [G5C C6U G8C C9U U10C G34U A35G],0.537
23,AGUUCUUCUCGGGAGCUCCAGCACAGUGAAAUGUUCAGAAGGGCAGAGCAA [G5C C6U G8C C9U U10C G34U A35U],0.377
24,AGUUCUUCUCGGGAGCUCCAGCACAGUGAAAUGUCCAGAAGGGCAGAGCAA [G5C C6U G8C C9U U10C G34U A35C],0.683
25,AGUUCUUCUCGGGAGCUCCAGCACAGUGAAAUAGACAGAAGGGCAGAGCAA [G5C C6U G8C C9U U10C G33A],0.198
26,AGUUCUUCUCGGGAGCUCCAGCACAGUGAAAUUGACAGAAGGGCAGAGCAA [G5C C6U G8C C9U U10C G33U],0.658

row,Variant,exon inclusion enrichment index
1,AGUUCUUCUCGGGAGCUCCAGCACAGUGAAAUCGACAGAAGGGCAGAGCAA [G5C C6U G8C C9U U10C G33C],2.15
2,AGUUCUUCUCGGGAGCUCCACCACAGUGAAAUGGACAGAAGGGCAGAGCAA [G5C C6U G8C C9U U10C G21C],1.57
3,AGUUCUUCUCGGGAGCUCCAACACAGUGAAAUGGACAGAAGGGCAGAGCAA [G5C C6U G8C C9U U10C G21A],1.28
4,AGUUCUUCUCGGGAGCUCCAUCACAGUGAAAUGGACAGAAGGGCAGAGCAA [G5C C6U G8C C9U U10C G21U],1.22
5,AGUUCUUCUCGGGAGCUCCAGCACAGUGAAAUGGACAGAAGAGCAGAGCAA [G5C C6U G8C C9U U10C G42A],3.34
6,AGUUCUUCUCGGGAGCUCCAGCACAGUGAAAUGGACAGAAGCGCAGAGCAA [G5C C6U G8C C9U U10C G42C],3.76
7,AGUUCUUCUCGGGAGCUCCAGCACAGUGAAAUGGACAGAAGUGCAGAGCAA [G5C C6U G8C C9U U10C G42U],2.42
8,AGUUCUUCUCGGGAGCUCCAGCACAGUGAAAUGGACAAGAGGGCAGAGCAA [G5C C6U G8C C9U U10C G38A A39G],1.85
9,AGUUCUUCUCGGGAGCUCCAGCACAGUGAAAUGGACAACAGGGCAGAGCAA [G5C C6U G8C C9U U10C G38A A39C],1.48
10,AGUUCUUCUCGGGAGCUCCAGCACAGUGAAAUGGACAAUAGGGCAGAGCAA [G5C C6U G8C C9U U10C G38A A39U],0.134
11,AGUUCUUCUCGGGAGCUCCAGCACAGUGAAAUGGACACUAGGGCAGAGCAA [G5C C6U G8C C9U U10C G38C A39U],0.141
12,AGUUCUUCUCGGGAGCUCCAGCACAGUGAAAUGGACACGAGGGCAGAGCAA [G5C C6U G8C C9U U10C G38C A39G],1.77
13,AGUUCUUCUCGGGAGCUCCAGCACAGUGAAAUGGACACCAGGGCAGAGCAA [G5C C6U G8C C9U U10C G38C A39C],1.84
14,AGUUCUUCUCGGGAGCUCCAGCACAGUGAAAUGGACAUAAGGGCAGAGCAA [G5C C6U G8C C9U U10C G38U],0.577
15,AGUUCUUCUCGGGAGCUCCAGCACAGUGAAAUGGACAAAAGGGCAGAGCAA [G5C C6U G8C C9U U10C G38A],1.01
16,AGUUCUUCUCGGGAGCUCCAGCACAGUGAAAUGGACACAAGGGCAGAGCAA [G5C C6U G8C C9U U10C G38C],1.28
17,AGUUCUUCUCGGGAGCUCCAGCACAGUGAAAUGGACAGAAUGGCAGAGCAA [G5C C6U G8C C9U U10C G41U],2.03
18,AGUUCUUCUCGGGAGCUCCAGCACAGUGAAAUGGACAGAAAGGCAGAGCAA [G5C C6U G8C C9U U10C G41A],1.33
19,AGUUCUUCUCGGGAGCUCCAGCACAGUGAAAUGGACAGAACGGCAGAGCAA [G5C C6U G8C C9U U10C G41C],3.06
20,AGUUCUUCUCGGGAGCUCCAGCACAGUGAAAUGGACAGAAGUCCAGAGCAA [G5C C6U G8C C9U U10C G42U G43C],1.23
21,AGUUCUUCUCGGGAGCUCCAGCACAGUGAAAUGGACAGAAGUACAGAGCAA [G5C C6U G8C C9U U10C G42U G43A],3.34
22,AGUUCUUCUCGGGAGCUCCAGCACAGUGAAAUGGACAGAAGUUCAGAGCAA [G5C C6U G8C C9U U10C G42U G43U],2.81
23,AGUUCUUCUCGGGAGCUCCAGCACAGUGAAAUAAACAGAAGGGCAGAGCAA [G5C C6U G8C C9U U10C G33A G34A],0.246
24,AGUUCUUCUCGGGAGCUCCAGCACAGUGAAAUAUACAGAAGGGCAGAGCAA [G5C C6U G8C C9U U10C G33A G34U],0.283
25,AGUUCUUCUCGGGAGCUCCAGCACAGUGAAAUACACAGAAGGGCAGAGCAA [G5C C6U G8C C9U U10C G33A G34C],0.284

# Reference: the RNAGym collection of RNA variant scans (doi:10.1101/gr.219683.116)
